Columns and labels:
[1] = target: AKMT-ΔNTD (Toxoplasma gondii, UniProt B9Q0K5); experiment: isothermal titration calorimetry; type: binding
[2] = target: AKMT-ΔNTD (aa289–709) (Toxoplasma gondii); experiment: SEC-MALS
[3] = target: AKMT-ΔNTD-short (aa309–709) (Toxoplasma gondii); experiment: SEC-MALS
[4] = target: full-length T. gondii apical complex lysine (K) methyltransferase (AKMT, aa1–709) (Toxoplasma gondii); experiment: SEC-MALS

## Nc1ncnc2c1ncn2[C@@H]1O[C@H](C[C@@H](N)CC[C@H](N)C(=O)O)[C@@H](O)[C@H]1O [sinefungin]
[1]
  Kd: 260 nM

## AKMT-ΔNTD (aa289–709) (domain or fragment)
[2]
  stoichiometry N: 2

## AKMT-ΔNTD-short (aa309–709) (domain or fragment)
[3]
  stoichiometry N: 2

## full-length T. gondii apical complex lysine (K) methyltransferase (AKMT, aa1–709) (enzyme)
[4]
  stoichiometry N: 2
